Results from article PMC8452012, “Branched chain fatty acid synthesis drives tissue-specific innate immune response and infection dynamics of Staphylococcus aureus” (PLoS Pathogens, 2021).

Columns and labels:
Test in all cases: purified protein
Details in all cases: pH 8.0, 25 °C, 50 mM Tris-HCl, 1 mg/mL arabic gum, 0.05% Triton X-100, 10% isopropanol
[1] = test system: CCCCCCCC/C=C\CCCCCCCC(=O)Oc1ccc([N+](=O)[O-])cc1
[2] = test system: CCC(C)CCCCCCCCCCC(=O)Oc1ccc([N+](=O)[O-])cc1
[3] = test system: CCCC(=O)Oc1ccc([N+](=O)[O-])cc1

Question: Which results are given for “Geh (Sal2); Geh-6xHis (Staphylococcus aureus subsp. aureus NCTC 8325)”?
Answer: Km [1]: 160.5 µM; Km [2]: 74.1 µM

Question: “Sal1; Sal1-6xHis (Staphylococcus aureus subsp. aureus USA300)” was tested. Which Km [3] did it give?
Answer: 332.4 µM
